Reference: patent US20140378663A1

Experiments:
[1] = target: Recombinant soluble human FcRn (human) (UniProt P55899); test: SPR (BIAcore X100), FcRn immobilised, pH 6.0
[2] = target: FcγRIIaH131 (PX Therapeutics, His-tagged) (human) (UniProt P12318); test: ELISA, purified IgG from YB2/0, vs R593 IgG-WT
[3] = target: FcγRIIIaV158 (R&D system) (human) (UniProt P08637); test: ELISA, purified IgG from YB2/0, vs R593 IgG-WT
[4] = target: FcRn-p3 (fusion protein of β2 microglobulin chain and FcRn α-chain fused to bacteriophage protein p3 and CVDE protein) (UniProt P61769); test: ELISA, purified IgG from YB2/0, vs R593 IgG-WT
[5] = target: FcγRIIb (R&D system) (human) (UniProt P31994); test: ELISA, purified IgG from YB2/0, vs R593 IgG-WT
[6] = target: FcγRI (R&D system) (human) (UniProt P12314); test: ELISA, purified IgG from YB2/0, vs R593 IgG-WT
[7] = target: FcγRIIIaF158 (PX Therapeutics, His-tagged) (human) (UniProt P08637); test: ELISA, purified IgG from YB2/0, vs R593 IgG-WT
[8] = target: FcγRIIaR131 (R&D system) (human) (UniProt P12318); test: ELISA, purified IgG from YB2/0, vs R593 IgG-WT
[9] = target: RhD antigen on RhD+ red blood cells (UniProt Q02161); test: flow cytometry on RhD+ red blood cells
Fcγ receptors = test: cell-based or functional assay
[10] = target: Recombinant soluble human FcRn (human) (UniProt P55899); test: SPR, FcRn immobilised, pH 6.0; reference R593
[11] = target: FcγRIIaH131 (PX Therapeutics, His-tagged) (human) (UniProt P12318); test: ELISA, purified IgG from YB2/0, vs parent R593-256N/378V/383N/434Y
[12] = target: FcγRIIIaV158 (R&D system) (human) (UniProt P08637); test: as above
[13] = target: FcRn-p3 (fusion protein of β2 microglobulin chain and FcRn α-chain fused to bacteriophage protein p3 and CVDE protein) (UniProt P61769); test: as above
[14] = target: FcγRIIb (R&D system) (human) (UniProt P31994); test: as above
[15] = target: FcγRI (R&D system) (human) (UniProt P12314); test: as above
[16] = target: FcγRIIIaF158 (PX Therapeutics, His-tagged) (human) (UniProt P08637); test: as above
[17] = target: FcγRIIaR131 (R&D system) (human) (UniProt P12318); test: as above
[18] = target: FcγRIIaH131 (PX Therapeutics, His-tagged) (human) (UniProt P12318); test: ELISA, purified IgG from YB2/0, vs parent R593-259I/315D/434Y
[19] = target: FcγRIIIaV158 (R&D system) (human) (UniProt P08637); test: as above
[20] = target: FcRn-p3 (fusion protein of β2 microglobulin chain and FcRn α-chain fused to bacteriophage protein p3 and CVDE protein) (UniProt P61769); test: as above
[21] = target: FcγRIIb (R&D system) (human) (UniProt P31994); test: as above
[22] = target: FcγRI (R&D system) (human) (UniProt P12314); test: as above
[23] = target: FcγRIIIaF158 (PX Therapeutics, His-tagged) (human) (UniProt P08637); test: as above
[24] = target: FcγRIIaR131 (R&D system) (human) (UniProt P12318); test: as above
[25] = target: Recombinant soluble human FcRn (human) (UniProt P55899); test: SPR, FcRn immobilised, pH 6.0; reference R603
[26] = target: FcγRIIaH131 (PX Therapeutics, His-tagged) (human) (UniProt P12318); test: ELISA, purified IgG from YB2/0, vs parent R603-259I/315D/434Y
[27] = target: FcγRIIIaV158 (R&D system) (human) (UniProt P08637); test: as above
[28] = target: FcRn-p3 (fusion protein of β2 microglobulin chain and FcRn α-chain fused to bacteriophage protein p3 and CVDE protein) (UniProt P61769); test: as above
[29] = target: FcγRIIb (R&D system) (human) (UniProt P31994); test: as above
[30] = target: FcγRI (R&D system) (human) (UniProt P12314); test: as above
[31] = target: FcγRIIIaF158 (PX Therapeutics, His-tagged) (human) (UniProt P08637); test: as above
[32] = target: FcγRIIaR131 (R&D system) (human) (UniProt P12318); test: as above
[33] = target: FcγRIIaH131 (PX Therapeutics, His-tagged) (human) (UniProt P12318); test: ELISA, purified IgG from YB2/0, vs R603 IgG-WT
[34] = target: FcγRIIIaV158 (R&D system) (human) (UniProt P08637); test: ELISA, purified IgG from YB2/0, vs R603 IgG-WT
[35] = target: FcRn-p3 (fusion protein of β2 microglobulin chain and FcRn α-chain fused to bacteriophage protein p3 and CVDE protein) (UniProt P61769); test: ELISA, purified IgG from YB2/0, vs R603 IgG-WT
[36] = target: FcγRIIb (R&D system) (human) (UniProt P31994); test: ELISA, purified IgG from YB2/0, vs R603 IgG-WT
[37] = target: FcγRI (R&D system) (human) (UniProt P12314); test: ELISA, purified IgG from YB2/0, vs R603 IgG-WT
[38] = target: FcγRIIIaF158 (PX Therapeutics, His-tagged) (human) (UniProt P08637); test: ELISA, purified IgG from YB2/0, vs R603 IgG-WT
[39] = target: FcγRIIaR131 (R&D system) (human) (UniProt P12318); test: ELISA, purified IgG from YB2/0, vs R603 IgG-WT
[40] = target: T1, CD20 antigen on Raji lymphoblastoid B cells (UniProt P11836); test: flow cytometry on Raji cells
T1 sequence (looked up): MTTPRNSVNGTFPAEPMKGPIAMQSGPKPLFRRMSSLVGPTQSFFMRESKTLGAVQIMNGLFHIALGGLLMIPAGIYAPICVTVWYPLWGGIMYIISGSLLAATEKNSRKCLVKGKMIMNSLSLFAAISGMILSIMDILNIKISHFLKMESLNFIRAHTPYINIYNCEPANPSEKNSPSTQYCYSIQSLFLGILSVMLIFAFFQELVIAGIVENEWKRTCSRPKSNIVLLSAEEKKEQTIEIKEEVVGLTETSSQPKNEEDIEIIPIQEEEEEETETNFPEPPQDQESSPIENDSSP

[41] = target: FcγRIIIaV158 (R&D system) (human) (UniProt P08637); test: ELISA, 293-F supernatant, vs parent 259I/315D/434Y
[42] = target: FcRn-p3 (fusion protein of β2 microglobulin chain and FcRn α-chain fused to bacteriophage protein p3 and CVDE protein) (UniProt P61769); test: ELISA, 293-F supernatant, vs parent 259I/315D/434Y
[43] = target: FcγRIIb (R&D system) (human) (UniProt P31994); test: ELISA, 293-F supernatant, vs parent 259I/315D/434Y
[44] = target: C1q complement (Calbiochem) (UniProt P02745); test: ELISA, 293-F supernatant, vs parent 259I/315D/434Y
[45] = target: FcγRI (R&D system) (human) (UniProt P12314); test: ELISA, 293-F supernatant, vs parent 259I/315D/434Y
[46] = target: FcγRIIaR131 (R&D system) (human) (UniProt P12318); test: ELISA, 293-F supernatant, vs parent 259I/315D/434Y
[47] = target: FcγRIIIaV158 (R&D system) (human) (UniProt P08637); test: ELISA, 293-F supernatant, vs R603 IgG-WT
[48] = target: FcRn-p3 (fusion protein of β2 microglobulin chain and FcRn α-chain fused to bacteriophage protein p3 and CVDE protein) (UniProt P61769); test: ELISA, 293-F supernatant, vs R603 IgG-WT
[49] = target: FcγRIIb (R&D system) (human) (UniProt P31994); test: ELISA, 293-F supernatant, vs R603 IgG-WT
[50] = target: C1q complement (Calbiochem) (UniProt P02745); test: ELISA, 293-F supernatant, vs R603 IgG-WT
[51] = target: FcγRI (R&D system) (human) (UniProt P12314); test: ELISA, 293-F supernatant, vs R603 IgG-WT
[52] = target: FcγRIIaR131 (R&D system) (human) (UniProt P12318); test: ELISA, 293-F supernatant, vs R603 IgG-WT

Chain of FcγRIIb (R&D system) (human) (P31994 46-217 limits assumed): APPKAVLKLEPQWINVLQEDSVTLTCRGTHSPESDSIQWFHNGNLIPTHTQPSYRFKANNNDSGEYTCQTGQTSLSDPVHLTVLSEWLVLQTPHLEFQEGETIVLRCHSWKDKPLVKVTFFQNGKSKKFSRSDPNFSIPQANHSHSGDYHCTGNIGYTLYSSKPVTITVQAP
Chain of FcRn-p3 (fusion protein of β2 microglobulin chain and FcRn α-chain fused to bacteriophage protein p3 and CVDE protein) (P61769 21-119, chain 1 of 2): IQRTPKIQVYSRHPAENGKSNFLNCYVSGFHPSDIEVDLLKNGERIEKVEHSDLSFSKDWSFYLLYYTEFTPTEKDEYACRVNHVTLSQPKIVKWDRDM
Chain of FcRn-p3 (fusion protein of β2 microglobulin chain and FcRn α-chain fused to bacteriophage protein p3 and CVDE protein) (P55899 24-290, chain 2 of 2, further chain): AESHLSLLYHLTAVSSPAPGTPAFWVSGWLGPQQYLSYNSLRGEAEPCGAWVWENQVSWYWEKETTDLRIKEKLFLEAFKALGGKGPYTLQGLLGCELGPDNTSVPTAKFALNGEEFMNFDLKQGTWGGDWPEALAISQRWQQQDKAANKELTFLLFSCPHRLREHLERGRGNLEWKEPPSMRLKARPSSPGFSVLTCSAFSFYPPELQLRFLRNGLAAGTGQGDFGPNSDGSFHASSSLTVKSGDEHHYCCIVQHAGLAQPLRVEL
Chain of FcγRI (R&D system) (human) (P12314 16-288 limits assumed): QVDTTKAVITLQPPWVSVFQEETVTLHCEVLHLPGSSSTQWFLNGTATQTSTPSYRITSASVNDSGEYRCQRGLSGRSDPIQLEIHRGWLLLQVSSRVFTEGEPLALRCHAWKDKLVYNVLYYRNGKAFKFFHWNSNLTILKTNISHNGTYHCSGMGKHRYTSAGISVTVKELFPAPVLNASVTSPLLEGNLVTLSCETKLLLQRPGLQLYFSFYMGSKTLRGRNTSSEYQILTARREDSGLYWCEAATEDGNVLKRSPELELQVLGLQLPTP
Chain of FcγRIIIaF158 (PX Therapeutics, His-tagged) (human) (P08637 17-208 limits assumed): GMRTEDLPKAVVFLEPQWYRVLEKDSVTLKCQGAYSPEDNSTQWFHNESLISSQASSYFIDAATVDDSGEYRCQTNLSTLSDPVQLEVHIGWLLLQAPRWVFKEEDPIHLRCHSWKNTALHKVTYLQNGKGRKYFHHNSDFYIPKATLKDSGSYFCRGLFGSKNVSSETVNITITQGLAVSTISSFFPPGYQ
Chain of FcγRIIaR131 (R&D system) (human) (P12318 36-218 H167R limits assumed): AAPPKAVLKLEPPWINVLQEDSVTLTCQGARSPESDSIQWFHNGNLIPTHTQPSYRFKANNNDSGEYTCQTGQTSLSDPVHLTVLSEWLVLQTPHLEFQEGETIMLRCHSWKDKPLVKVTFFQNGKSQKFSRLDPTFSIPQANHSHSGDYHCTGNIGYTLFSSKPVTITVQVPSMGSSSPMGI
Chain of FcγRIIaH131 (PX Therapeutics, His-tagged) (human) (P12318 34-217 limits assumed): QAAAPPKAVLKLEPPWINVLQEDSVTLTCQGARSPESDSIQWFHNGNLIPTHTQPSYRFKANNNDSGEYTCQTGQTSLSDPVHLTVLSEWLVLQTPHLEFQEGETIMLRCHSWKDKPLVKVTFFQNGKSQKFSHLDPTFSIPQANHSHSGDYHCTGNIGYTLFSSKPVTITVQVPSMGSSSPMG
Chain of Recombinant soluble human FcRn (human) (P55899 24-290 limits assumed, chain 1 of 2): as the sequence (P55899 24-290, chain 2 of 2, further chain) above
Chain of Recombinant soluble human FcRn (human) (P61769 21-119 limits assumed, chain 2 of 2, further chain): as the sequence (P61769 21-119, chain 1 of 2) above
Chain of FcγRIIIaV158 (R&D system) (human) (P08637 17-208 F176V limits assumed): as the sequence (P08637 17-208 limits assumed) above, with F160V counted along it
Chain of RhD antigen on RhD+ red blood cells (Q02161 2-417 limits assumed): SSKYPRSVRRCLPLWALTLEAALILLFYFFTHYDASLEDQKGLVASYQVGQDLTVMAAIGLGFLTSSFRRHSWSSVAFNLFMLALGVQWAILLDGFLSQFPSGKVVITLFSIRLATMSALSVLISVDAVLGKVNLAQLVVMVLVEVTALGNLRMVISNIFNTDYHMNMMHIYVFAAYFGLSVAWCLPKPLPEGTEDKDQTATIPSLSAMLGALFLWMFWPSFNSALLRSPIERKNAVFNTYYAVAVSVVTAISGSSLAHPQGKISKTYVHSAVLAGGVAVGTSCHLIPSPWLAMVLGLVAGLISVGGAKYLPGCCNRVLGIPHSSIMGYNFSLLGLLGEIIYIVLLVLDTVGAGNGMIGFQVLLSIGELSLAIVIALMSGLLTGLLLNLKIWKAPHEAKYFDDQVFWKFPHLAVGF
Chain of C1q complement (Calbiochem) (P02745 23-245, chain 1 of 3): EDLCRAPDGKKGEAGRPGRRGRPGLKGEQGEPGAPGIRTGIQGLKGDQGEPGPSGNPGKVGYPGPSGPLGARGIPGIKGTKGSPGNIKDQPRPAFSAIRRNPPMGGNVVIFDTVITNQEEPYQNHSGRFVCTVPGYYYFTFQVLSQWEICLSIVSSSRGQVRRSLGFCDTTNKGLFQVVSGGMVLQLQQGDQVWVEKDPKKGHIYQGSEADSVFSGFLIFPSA
Chain of C1q complement (Calbiochem) (P02746 28-253, chain 2 of 3, further chain): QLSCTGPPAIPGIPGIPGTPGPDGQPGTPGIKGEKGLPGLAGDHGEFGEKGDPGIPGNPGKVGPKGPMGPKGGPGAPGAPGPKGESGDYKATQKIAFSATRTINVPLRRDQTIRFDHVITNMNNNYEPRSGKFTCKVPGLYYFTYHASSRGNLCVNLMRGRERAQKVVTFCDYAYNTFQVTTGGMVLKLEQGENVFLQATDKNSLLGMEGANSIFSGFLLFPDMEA
Chain of C1q complement (Calbiochem) (P02747 29-245, chain 3 of 3, further chain): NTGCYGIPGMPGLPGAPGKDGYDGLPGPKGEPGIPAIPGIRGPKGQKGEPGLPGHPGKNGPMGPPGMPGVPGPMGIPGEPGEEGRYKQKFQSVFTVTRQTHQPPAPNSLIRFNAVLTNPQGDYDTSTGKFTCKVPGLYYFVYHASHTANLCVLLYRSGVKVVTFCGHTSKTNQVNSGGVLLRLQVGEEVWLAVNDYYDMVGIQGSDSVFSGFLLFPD

“R593 anti-RhD+ IgG1 variant 256N/294Del/378V/383N/434Y (antibody)” was tested, and the Kd [1] was 4.23 nM, the Ratio/IgG-WT [2] was 0.17 and the Ratio/IgG-WT [3] was 0.1. The Ratio/IgG-WT [4] was 7.48, the Ratio/IgG-WT [5] was 0.27 and the Ratio/IgG-WT [6] was 0.12. The Ratio/IgG-WT [7] was 0.1, the Ratio/IgG-WT [8] was 0.17 and the Ag binding MFI (Arbitrary Unit) [9] was 44.7. It also gave an ADCC EC50 (ng/ml), lysis of RhD+ red cells (Fcγ receptors) of 75.9 ng/mL, an ADCC Max. Lysis (%) (Fcγ receptors) of 6% and a Ratio WT/IgG (KD) [10] of 44.9. It also gave a ratio to the IgG1 without 294Del [11] of 0.17, a ratio to the IgG1 without 294Del [12] of 0.1 and a ratio to the IgG1 without 294Del [13] of 1. It also gave a ratio to the IgG1 without 294Del [14] of 0.17, a ratio to the IgG1 without 294Del [15] of 0.05 and a ratio to the IgG1 without 294Del [16] of 0.11. The ratio to the IgG1 without 294Del [17] was 0.16.
With “R593 anti-RhD+ IgG1 variant 259I/294Del/315D/434Y (antibody)” the Kd [1] was 20.2 nM, the Ratio/IgG-WT [2] was 0.1 and the Ratio/IgG-WT [3] was 0.07. The Ratio/IgG-WT [4] was 7.19, the Ratio/IgG-WT [5] was 0.18 and the Ratio/IgG-WT [6] was 0.13. For the same substance, the Ratio/IgG-WT [7] was 0.07, the Ratio/IgG-WT [8] was 0.12 and the Ag binding MFI (Arbitrary Unit) [9] was 47.9. It also gave an ADCC EC50 (ng/ml), lysis of RhD+ red cells (Fcγ receptors) of 75.9 ng/mL, an ADCC Max. Lysis (%) (Fcγ receptors) of 4% and a Ratio WT/IgG (KD) [10] of 9.41. The ratio to the IgG1 without 294Del [18] was 0.11, the ratio to the IgG1 without 294Del [19] was 0.07 and the ratio to the IgG1 without 294Del [20] was 0.91. For the same substance, the ratio to the IgG1 without 294Del [21] was 0.13, the ratio to the IgG1 without 294Del [22] was 0.12 and the ratio to the IgG1 without 294Del [23] was 0.07. The ratio to the IgG1 without 294Del [24] was 0.11.
“R603 anti-CD20 IgG1 variant 259I/294Del/315D/434Y (antibody)” gave a Kd [1] of 28 nM, a Ratio WT/IgG (KD) [25] of 3.54 and a ratio to the IgG1 without 294Del [26] of 0.08. For the same substance, the ratio to the IgG1 without 294Del [27] was 0.05, the ratio to the IgG1 without 294Del [28] was 0.86 and the ratio to the IgG1 without 294Del [29] was 0.27. The ratio to the IgG1 without 294Del [30] was 0.09, the ratio to the IgG1 without 294Del [31] was 0.07 and the ratio to the IgG1 without 294Del [32] was 0.06. The Ratio/IgG-WT [33] was 0.08, the Ratio/IgG-WT [34] was 0.05 and the Ratio/IgG-WT [35] was 5.97. The Ratio/IgG-WT [36] was 0.41, the Ratio/IgG-WT [37] was 0.1 and the Ratio/IgG-WT [38] was 0.08. It also gave a Ratio/IgG-WT [39] of 0.07, an Ag binding MFI (Arbitrary Unit) [40] of 96 and a ratio to the IgG1 without 294Del [41] of 0.02. For the same substance, the ratio to the IgG1 without 294Del [42] was 0.66, the ratio to the IgG1 without 294Del [43] was 0.01 and the ratio to the IgG1 without 294Del [44] was 0.1. It also gave a ratio to the IgG1 without 294Del [45] of 0.41, a ratio to the IgG1 without 294Del [46] of 0.01 and a Ratio/IgG-WT [47] of 0.02. For the same substance, the Ratio/IgG-WT [48] was 2.87, the Ratio/IgG-WT [49] was 0.01 and the Ratio/IgG-WT [50] was 0.13. The Ratio/IgG-WT [51] was 0.34 and the Ratio/IgG-WT [52] was 0.01.
